The values that follow come from article PMC13218722 (2026).

For this assay, the target named is LFA-1 (Homo sapiens, UniProt P20701). Nature of the assay: BLI.
Sequence of LFA-1 (P20701 26-1170, chain 1 of 2): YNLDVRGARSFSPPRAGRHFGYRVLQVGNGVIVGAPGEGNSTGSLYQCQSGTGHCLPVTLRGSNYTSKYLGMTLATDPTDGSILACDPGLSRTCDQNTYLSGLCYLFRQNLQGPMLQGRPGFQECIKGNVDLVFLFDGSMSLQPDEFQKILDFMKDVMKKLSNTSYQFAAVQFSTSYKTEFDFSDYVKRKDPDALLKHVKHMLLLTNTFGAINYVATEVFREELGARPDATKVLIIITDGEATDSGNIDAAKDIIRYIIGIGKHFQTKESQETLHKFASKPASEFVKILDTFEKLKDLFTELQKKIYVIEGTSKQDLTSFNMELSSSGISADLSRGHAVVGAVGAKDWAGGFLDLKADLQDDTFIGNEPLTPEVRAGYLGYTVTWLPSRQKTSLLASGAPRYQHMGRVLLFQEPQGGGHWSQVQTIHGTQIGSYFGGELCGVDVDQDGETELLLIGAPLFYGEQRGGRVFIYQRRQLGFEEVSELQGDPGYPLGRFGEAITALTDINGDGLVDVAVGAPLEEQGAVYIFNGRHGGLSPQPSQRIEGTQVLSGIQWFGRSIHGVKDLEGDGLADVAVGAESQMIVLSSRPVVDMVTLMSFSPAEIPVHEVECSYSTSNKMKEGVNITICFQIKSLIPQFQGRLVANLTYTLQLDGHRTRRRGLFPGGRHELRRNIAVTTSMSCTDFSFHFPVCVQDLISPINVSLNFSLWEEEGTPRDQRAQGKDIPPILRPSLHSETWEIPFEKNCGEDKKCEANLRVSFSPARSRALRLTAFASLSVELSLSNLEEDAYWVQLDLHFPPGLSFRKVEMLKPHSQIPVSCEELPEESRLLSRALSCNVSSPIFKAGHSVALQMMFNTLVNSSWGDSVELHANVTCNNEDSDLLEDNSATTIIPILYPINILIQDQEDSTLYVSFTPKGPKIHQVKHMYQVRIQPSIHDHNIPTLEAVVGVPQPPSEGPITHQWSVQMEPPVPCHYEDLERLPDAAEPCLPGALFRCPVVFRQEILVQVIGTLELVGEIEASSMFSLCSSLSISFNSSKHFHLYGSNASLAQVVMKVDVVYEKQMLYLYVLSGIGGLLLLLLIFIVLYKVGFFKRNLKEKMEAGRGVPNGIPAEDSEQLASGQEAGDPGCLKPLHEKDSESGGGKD
Sequence of LFA-1 (chain, as listed by the source, chain 2 of 2): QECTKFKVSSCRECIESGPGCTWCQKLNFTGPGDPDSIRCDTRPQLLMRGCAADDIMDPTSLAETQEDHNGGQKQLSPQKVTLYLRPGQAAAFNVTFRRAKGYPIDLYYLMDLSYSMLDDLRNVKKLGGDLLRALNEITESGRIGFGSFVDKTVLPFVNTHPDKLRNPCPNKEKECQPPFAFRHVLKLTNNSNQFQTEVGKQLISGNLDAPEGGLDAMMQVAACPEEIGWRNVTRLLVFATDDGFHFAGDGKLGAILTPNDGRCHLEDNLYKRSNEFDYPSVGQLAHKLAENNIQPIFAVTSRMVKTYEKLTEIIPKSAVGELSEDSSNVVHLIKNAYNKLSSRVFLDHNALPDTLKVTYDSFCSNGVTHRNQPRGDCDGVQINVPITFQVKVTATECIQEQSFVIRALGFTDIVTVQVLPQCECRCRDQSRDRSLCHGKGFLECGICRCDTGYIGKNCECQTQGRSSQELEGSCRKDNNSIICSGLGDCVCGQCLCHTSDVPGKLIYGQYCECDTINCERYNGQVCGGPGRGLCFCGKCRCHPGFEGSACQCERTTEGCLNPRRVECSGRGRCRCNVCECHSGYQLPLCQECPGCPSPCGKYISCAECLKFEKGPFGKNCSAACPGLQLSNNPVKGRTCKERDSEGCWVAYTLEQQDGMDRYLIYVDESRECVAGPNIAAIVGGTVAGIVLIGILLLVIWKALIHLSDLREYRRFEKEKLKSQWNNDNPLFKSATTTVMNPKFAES

B1: GBP-130 ectodomain (protein)
chain: MRLSKVSDIKSTGVSNYKNFNSKNSSKYSLMEVSKKNEKKNSLGAFHSKKILLIFGIIYVVLLNAYICGDKYEKAVDYGFRESRILAEGEDTCARKEKTTLRKSKQKTSTRTVATQTKKDEENKSVVTEEQKVESDSEKQKRTKKVVKKQINIGDTENQKEGKNVKKVIKKEKKKEESGKPEENKHANEASKKQEPKASKVSQKPSTSTRSNNEVKIRAASNQETLTSADPEGQIMREYAADPEYRKHLEIFYKILTNTDPNDEVERRNADNKEDLTSADPEGQIMREYASDPEYRKHLEIFYKILTNTDPNDDVERRNADNKEDLTSADPEGQIMREYAADPEYRKHLEVFHKILTNTDPNDEVERRNADNKEDLTSADPEGQIMREYAADPEYRKHLEVFHKILTNTDPNDEVERRNADNKELTSSDPEGQIMREYAADPEYRKHLEVFHKILTNTDPNDEVERRNADNKEDLTSADPEGQIMREYAADPEYRKHLEVFHKILTNTDPNDEVERRNADNKEDLTSADPEGQIMREYAADPEYRKHLEIFHKILTNTDPNDEVERRNADNKEDLTSADPEGQIMREYAADPEYRKHLEIFYKILTNTDPNDEVERRNADNKEELTSSDPEGQIMREYAADPEYRKHLEIFHKILTNTDPNDEVERRNADNKEDLTSADPEGQIMREYAADPEYRKHLEIFYKILTNTDPNDEVERRNADNKEDLTSADPEGQIMREYASDPEYRKHLEIFYKILTNTDPNDDVERRNADNKEDLTSADPEGQIMREYAADPEYRKHLEVFHKILTNTDPNDEVERQNADNNEA
The Kd is the equilibrium constant for the complex coming apart. A higher Kd goes with weaker binding. B1 yielded a Kd of 15 nM.
